Where “and” joins values, the source holds several entries; their conditions need not be identical. Identical values can stand only once.
Biological target: IgG-CD4 protein (fusion protein of human CD4 domains 1 and 2 with human IgG1 Fc at the C terminus) (human)
Experiment: BLI; Octet QKe; IgG-CD4 loaded onto protein G sensors at 20 ug/ml in ForteBio kinetics buffer; serial dilutions of gp120 (600 nM to 0.4 nM) in solution; Kd = koff/kon, 1:1 fitting model; two GMP lots of each gp120

| Substance | Kd |
| --- | --- |
| GMP-grade gp120 protein, HIV-1 clade AE consensus | 24.6 nM and 18.4 nM |
| GMP-grade gp120 protein, HIV-1 clade B isolate JRFL (natural protein) | 7.44 nM and 4.87 nM |
| GMP-grade gp120 protein, HIV-1 clade C isolate 93MW965.26 (natural protein) | 157 nM and 115 nM |
